Values quoted from earlier work, collected in US20200069786A1, “COMPOSITION AND PROCESS FOR PREPARING VACCINE” (TREOS BIO ZRT., priority 2018, published 2020).
Where two headings read alike, the source gives them in different places.

Tested on: TSA
[1] = TSA expression rate in Cervical cancer
[2] = TSA expression rate in LUNG cancer
[3] = TSA expression rate in MELANOMA
[4] = TSA expression rate in PROSTATE cancer
[5] = TSA expression rate in HEAD and NECK
[6] = TSA expression rate in Esophageal
[7] = TSA expression rate in GASTRIC cancer

Molecule | TSA Expression Rate (ER) (BREAST) [%] | TSA Expression Rate (ER) (OVARIAN) [%] | Expression Rate (ER) % (TSA expression rate in CRC) [%] | Expression Rate (ER) % [1] [%] | Expression Rate (ER) % (TSA expression rate in Kidney) [%] | Expression Rate (ER) % (TSA expression rate in LEUKEMIAS) [%] | Expression Rate (ER) % [2] [%] | Expression Rate (ER) % [3] [%] | Expression Rate (ER) % [4] [%] | TSA Expression Rate (ER) (BRAIN) [%] | TSA Expression Rate (ER) (THYROID) [%] | Expression Rate (ER) % [5] [%] | TSA Expression Rate (ER) (HCC) [%] | TSA Expression Rate (ER) (LUNG) [%] | TSA Expression Rate (ER) (PANCREATIC) [%] | Expression Rate (ER) % [6] [%] | Expression Rate (ER) % [7] [%]
ADAM2 (protein, UniProt Q99965 175-735, looked up) Disintegrin and …: DFAKYIEMHVIVEKQLYNHMGSDTTVVAQKVFQLIGLTNAIFVSFNITIILSSLELWIDENKIATTGEANELLHTFLRWKTSYLVLRPHDVAFLLVYREKSNYVGATFQGKMCDANYAGGVVLHPRTISLESLAVILAQLLSLSMGITYDDINKCQCSGAVCIMNPEAIHFSGVKIFSNCSFEDFAHFISKQKSQCLHNQPRLDPFFKQQAVCGNAKLEAGEECDCGTEQDCALIGETCCDIATCRFKAGSNCAEGPCCENCLFMSKERMCRPSFEECDLPEYCNGSSASCPENHYVQTGHPCGLNQWICIDGVCMSGDKQCTDTFGKEVEFGPSECYSHLNSKTDVSGNCGISDSGYTQCEADNLQCGKLICKYVGKFLLQIPRATIIYANISGHLCIAVEFASDHADSQKMWIKDGTSCGSNKVCRNQRCVSSSYLGYDCTTDKCNDRGVCNNKKHCHCSASYLPPDCSVQSDLWPGGSIDSGNFPPVAIPARLPERRYIENIYHSKPMRWPFFLFIPFFIIFCVLIAIMVKVNFQRKKWRTEDYSSDEQPESESEPKG | 0 | 0 | 0 | 0 | 9 | 6 | 1 | 3 | 25 |  |  |  |  |  |  |  | 
SPO11 (protein, UniProt Q9Y5K1 1-396, looked up) Meiotic recombination protein …: MAFAPMGPEASFFDVLDRHRESLLAALRRGGREPPTGGSRLASSSEVLASIENIIQDIITSLARNEAPAFTIDNRSSWENIKFEDSVGLQMVSHCTTRKIKSDSPKSAQKFSLILKILSMIYKLVQSNTYATKRDIYYTDSQLFGNQTVVDNIINDISCMLKVSRRSLHILSTSKGLIAGNLRYIEEDGTKVNCTCGATAVAVPSNIQGIRNLVTDAKFVLIVEKDATFQRLLDDNFCNKLSPCIMITGKGVPDLNTRLLVKKLWDTFHVPVFTLVDADPHGIEIMCIYKYGSMSMSFEAHHLTVPAIRWLGLLPSDLKRLNVPKDSLIPLTKRDQMKLDSILRRPYVTCQPFWRKEMEIMADSKMKAEIQALTFLSSDYLSRVYLPNKLKFGGWI | 0 | 0 | 0 | 33 | 0 |  | 0 | 6 | 0 | 12 | 0 | 0 |  |  |  |  | 
CTCFL (protein, UniProt Q8NI51 1-663, looked up) Transcriptional repressor …: MAATEISVLSEQFTKIKELELMPEKGLKEEEKDGVCREKDHRSPSELEAERTSGAFQDSVLEEEVELVLAPSEESEKYILTLQTVHFTSEAVELQDMSLLSIQQQEGVQVVVQQPGPGLLWLEEGPRQSLQQCVAISIQQELYSPQEMEVLQFHALEENVMVASEDSKLAVSLAETTGLIKLEEEQEKNQLLAERTKEQLFFVETMSGDERSDEIVLTVSNSNVEEQEDQPTAGQADAEKAKSTKNQRKTKGAKGTFHCDVCMFTSSRMSSFNRHMKTHTSEKPHLCHLCLKTFRTVTLLRNHVNTHTGTRPYKCNDCNMAFVTSGELVRHRRYKHTHEKPFKCSMCKYASVEASKLKRHVRSHTGERPFQCCQCSYASRDTYKLKRHMRTHSGEKPYECHICHTRFTQSGTMKIHILQKHGENVPKYQCPHCATIIARKSDLRVHMRNLHAYSAAELKCRYCSAVFHERYALIQHQKTHKNEKRFKCKHCSYACKQERHMTAHIRTHTGEKPFTCLSCNKCFRQKQLLNAHFRKYHDANFIPTVYKCSKCGKGFSRWINLHRHSEKCGSGEAKSAASGKGRRTRKRKQTILKEATKGQKEAAKGWKEAANGDEAAAEEASTTKGEQFPGEMFPVACRETTARVKEEVDEGVTCEMLLNTMDK | 74 | 82 | 80 | 32 |  |  |  | 27 | 98 | 9 |  |  | 55 | 36 | 29 | 56 | 
CCDC110 (protein, UniProt Q8TBZ0 1-833, looked up) Coiled-coil domain-containing …: MSPEKQHREEDEVDSVLLSASKILNSSEGVKESGCSDTEYGCIAESENQIQPQSALKVLQQQLESFQALRMQTLQNVSMVQSEISEILNKSIIEVENPQFSSEKNLVFGTRIEKDLPTENQEENLSMEKSHHFEDSKTLHSVEEKLSGDSVNSLPQSVNVPSQIHSEDTLTLRTSTDNLSSNIIIHPSENSDILKNYNNFYRFLPTAPPNVMSQADTVILDKSKITVPFLKHGFCENLDDICHSIKQMKEELQKSHDGEVALTNELQTLQTDPDVHRNGKYDMSPIHQDKMNFIKEENLDGNLNEDIKSKRISELEALVKKLLPFRETVSKFHVHFCRKCKKLSKSEMHRGKKNEKNNKEIPITGKNITDLKFHSRVPRYTLSFLDQTKHEMKDKERQPFLVKQGSIISENEKTSKVNSVTEQCVAKIQYLQNYLKESVQIQKKVMELESENLNLKSKMKPLIFTTQSLIQKVETYEKQLKNLVEEKSTIQSKLSKTEEYSKECLKEFKKIISKYNVLQGQNKTLEEKNIQLSLEKQQMMEALDQLKSKEHKTQSDMAIVNNENNRMSIEMEAMKTNILLIQDEKEMLEKKTHQLLKEKSSLGNELKESQLEIIQLKEKERLAKTEQETLLQIIETVKDEKLNLETTLQESTAARQIMEREIENIQTYQSTAEENFLQEIKNAKSEASIYKNSLSEIGKECEMLSKMVMETKTDNQILKEELKKHSQENIKFENSISRLTEDKILLENYVRSIENERDTLEFEMRHLQREYLSLSDKICNQHNDPSKTTYISRREKFHFDNYTHEDTSSPQSRPLASDLKGYFKVKDRTLKHH |  |  | 50 |  |  |  |  | 60 |  |  |  | 67 | 50 | 50 | 100 |  | 100
CCDC62 (protein, UniProt Q6P9F0 1-684, looked up) Coiled-coil domain-containing …: MNPPAAFLAGRQNIGSEVEISTIEKQRKELQLLIGELKDRDKELNDMVAVHQQQLLSWEEDRQKVLTLEERCSKLEGELHKRTEIIRSLTKKVKALESNQMECQTALQKTQLQLQEMAQKATHSSLLSEDLEARNETLSNTLVELSAQVGQLQAREQALTTMIKLKDKDIIEAVNHIADCSGKFKMLEHALRDAKMAETCIVKEKQDYKQKLKALKIEVNKLKEDLNEKTTENNEQREEIIRLKQEKSCLHDELLFTVEREKRKDELLNIAKSKQERTNSELHNLRQIYVKQQSDLQFLNFNVENSQELIQMYDSKMEESKALDSSRDMCLSDLENNHPKVDIKREKNQKSLFKDQKFEAMLVQQNRSDKSSCDECKEKKQQIDTVFGEKSVITLSSIFTKDLVEKHNLPWSLGGKTQIEPENKITLCKIHTKSPKCHGTGVQNEGKQPSETPTLSDEKQWHDVSVYLGLTNCPSSKHPEKLDVECQDQMERSEISCCQKNEACLGESGMCDSKCCHPSNFIIEAPGHMSDVEWMSIFKPSKMQRIVRLKSGCTCSESICGTQHDSPASELIAIQDSHSLGSSKSALREDETESSSNKKNSPTSLLIYKDAPAFNEKASIVLPSQDDFSPTSKLQRLLAESRQMVTDLELSTLLPISHENLTGSATNKSEVPEESAQKNTFVSY |  | 0 | 13 |  | 25 |  |  |  | 22 |  |  | 12 | 0 |  |  | 21 | 7
PIWIL1 (protein, UniProt Q96J94 1-861, looked up) Piwi-like protein 1: MTGRARARARGRARGQETAQLVGSTASQQPGYIQPRPQPPPAEGELFGRGRQRGTAGGTAKSQGLQISAGFQELSLAERGGRRRDFHDLGVNTRQNLDHVKESKTGSSGIIVRLSTNHFRLTSRPQWALYQYHIDYNPLMEARRLRSALLFQHEDLIGKCHAFDGTILFLPKRLQQKVTEVFSKTRNGEDVRITITLTNELPPTSPTCLQFYNIIFRRLLKIMNLQQIGRNYYNPNDPIDIPSHRLVIWPGFTTSILQYENSIMLCTDVSHKVLRSETVLDFMFNFYHQTEEHKFQEQVSKELIGLVVLTKYNNKTYRVDDIDWDQNPKSTFKKADGSEVSFLEYYRKQYNQEITDLKQPVLVSQPKRRRGPGGTLPGPAMLIPELCYLTGLTDKMRNDFNVMKDLAVHTRLTPEQRQREVGRLIDYIHKNDNVQRELRDWGLSFDSNLLSFSGRILQTEKIHQGGKTFDYNPQFADWSKETRGAPLISVKPLDNWLLIYTRRNYEAANSLIQNLFKVTPAMGMQMRKAIMIEVDDRTEAYLRVLQQKVTADTQIVVCLLSSNRKDKYDAIKKYLCTDCPTPSQCVVARTLGKQQTVMAIATKIALQMNCKMGGELWRVDIPLKLVMIVGIDCYHDMTAGRRSIAGFVASINEGMTRWFSRCIFQDRGQELVDGLKVCLQAALRAWNSCNEYMPSRIIVYRDGVGDGQLKTLVNYEVPQFLDCLKSIGRGYNPRLTVIVVKKRVNTRFFAQSGGRLQNPLPGTVIDVEVTRPEWYDFFIVSQAVRSGSVSPTHYNVIYDNSGLKPDHIQRLTYKLCHIYYNWPGVIRVPAPCQYAHKLAFLVGQSIHREPNLSLSNRLYYL | 100 | 68 | 48 | 83 | 52 |  | 15 |  | 4 | 76 |  |  | 40 |  | 71 | 70 | 76
